According to patent US20240294626A1 (Novartis, published 2024):
One block for each binder: values may come before it.

Tests used:
Recombinant human IL-18 [1] = molecular target: T1, Recombinant human IL-18 (human, UniProt Q14116 37-193); assay: cell-based or functional assay
[2] = molecular target: T2, Recombinant marmoset IL-18 (marmoset, UniProt U3CWC9 37-190); assay: cell-based or functional assay
T2 sequence: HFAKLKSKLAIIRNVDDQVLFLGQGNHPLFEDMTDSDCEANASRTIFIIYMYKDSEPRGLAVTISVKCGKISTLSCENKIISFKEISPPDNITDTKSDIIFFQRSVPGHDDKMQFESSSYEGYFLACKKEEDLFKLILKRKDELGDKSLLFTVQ

Recombinant human IL-1β [3] = molecular target: T3, Recombinant human IL-1β (human, UniProt P01584 117-269); assay: SET, simultaneous target binding Assay B (both targets in serial dilutions in one mix)
T3 construct: also called huIL-1β; IL-1b
Protocol: (§1) Assay B: The equilibration process (antibody/antigen mix) was performed with both targets in serial dilutions in one mix simultaneously (constant concentration of antibody 10 pM, highest antigen conc. see above). The same mix was then analyzed for its free antibody concentration on IL18 and IL-1β coated plates as described above.

[4] = molecular target: T4, Recombinant marmoset IL-1β (marmoset, UniProt U3E018 117-268); assay: as above
T4 construct: also called marIL-1β; marIL-13
Protocol: as §1

[5] = molecular target: T4, Recombinant marmoset IL-1β; assay: cell-based or functional assay
Recombinant human IL-1β [6] = molecular target: T3, Recombinant human IL-1β; assay: cell-based or functional assay
Recombinant human IL-18 [7] = molecular target: T1, Recombinant human IL-18; assay: SET, simultaneous target binding Assay B (both targets in serial dilutions in one mix)
Protocol: as §1

IC50, inhibition of IFNγ production in KG-1 cells stimulated with recombinant human IL-18 (3 nM) and human IL-12 (1 ng/ml) (Recombinant human IL-18 [1]): 0.035 nM
IC50, inhibition of IFNγ production in human PBMC stimulated with recombinant human IL-18 (3 nM) and human IL-12 (1 ng/ml) (Recombinant human IL-18 [1]): 0.78 nM
IC50, inhibition of IFNγ production in human PBMC stimulated with recombinant marmoset IL-18 (1 nM) and human IL-12 (10 ng/ml) [2]: 6.6 nM
IC50, inhibition of IFNγ production in marmoset whole blood stimulated with recombinant marmoset IL-18 (0.3 nM) and human IL-12 (10 ng/ml) [2]: 4.7 nM
IC50, inhibition of IFNγ production in marmoset whole blood stimulated with recombinant marmoset IL-18 (3 nM) and human IL-12 (10 ng/ml) [2]: 181 nM
B1: mAb1 (antibody, human IgG1, lambda, L234A L235A, V domains shown)
VH: EVQLVQSGAEVKKPGSSVKVSCKASGGTFKSYAISWVRQAPGQGLEWMGNIIPMTGQTYYAQKFQGRVTITADESTSTAYMELSSLRSEDTAVYYCARAAYHPLVFDNWGQGTLVTVSS
VL: DIVLTQPPSVSGAPGQRVTISCSGSSSNIGNHYVNWYQQLPGTAPKLLIYRNNHRPSGVPDRFSGSKSGTSASLAITGLQSEDEADYYCQSWDYSGFSTVFGGGTKLTVLG
notes: Human anti-IL-18 monoclonal antibody, lambda light chain; also called IL-18 antibody
binding result (Recombinant human IL-1β [3]): no binding (tested: highest antigen conc. 0.5 nM)
binding result [4]: no binding (tested: highest antigen conc. 0.5 nM)

IC50, inhibition of IL-6 production in human dermal fibroblasts stimulated with recombinant marmoset IL-1β (18 pM), Exp. C [5]: 0.114 nM
IC50, inhibition of IL-6 production in marmoset dermal fibroblasts stimulated with recombinant marmoset IL-1β (18 pM), Exp. A [5]: 95 pM
IC50, inhibition of IL-6 production in marmoset dermal fibroblasts stimulated with recombinant marmoset IL-1β (18 pM), Exp. B [5]: 0.138 nM
IC50, inhibition of IL-6 production in human PBMC stimulated with recombinant human IL-1β (60 pM) (Recombinant human IL-1β [6]): 0.29 nM
IC50, inhibition of IL-6 production in human dermal fibroblasts stimulated with recombinant human IL-1β (6 pM) (Recombinant human IL-1β [6]): 31 pM
B2: mAb2 (antibody, human IgG1, kappa, V domains shown)
VH: QVQLVESGGGVVQPGRSLRLSCAASGFTFSVYGMNWVRQAPGKGLEWVAIIWYDGDNQYYADSVKGRFTISRDNSKNTLYLQMNGLRAEDTAVYYCARDLRTGPFDYWGQGTLVTVSS
VL: EIVLTQSPDFQSVTPKEKVTITCRASQSIGSSLHWYQQKPDQSPKLLIKYASQSFSGVPSRFSGSGSGTDFTLTINSLEAEDAAAYYCHQSSSLPFTFGPGTKVDIKR
notes: Human anti-IL-1β monoclonal antibody, kappa light chain; also called IL-1β antibody
binding result (Recombinant human IL-18 [7]): no binding (tested: highest antigen conc. 5 nM)
